# According to US20110301228:
# B1: recombinant human MMP1 (wild-type), secreted by AdhGRE.MMP1-infected HTM cells and activated with APMA (active form, 41 kDa) (protein)
# chain: FVLTEGNPRWEQTHLTYRIENYTPDLPRADVDHAIEKAFQLWSNVTPLTFTKVSEGQADIMISFVRGDHRDNSPFDGPGGNLAHAFQPGPGIGGDAHFDEDERWTNNFREYNLHRVAAHELGHSLGLSHSTDIGALMYPSYTFSGDVQLAQDDIDGIQAIYGRSQNPVQPIGPQTPKACDSKLTFDAITTIRGEVMFFKDRFYMRTNPFYPEVELNFISVFWPQLPNGLEAAYEFADRDEVRFFKGNKYWAVQGQNVLHGYPKDIYSSFGFPRTVKHIDAALSEENTGKTYFFVANKYWRYDEYKRSMDPGYPKMIAHDFPGIGHKVDAVFMKDGFFYFFHGTRQYKFDPKTKRILTLQKANSWFNCRKN
# Biological target: native rat tail collagen type I (BD Biosciences), P02454
# Sequence (P02454 152-1207, chain 1 of 2): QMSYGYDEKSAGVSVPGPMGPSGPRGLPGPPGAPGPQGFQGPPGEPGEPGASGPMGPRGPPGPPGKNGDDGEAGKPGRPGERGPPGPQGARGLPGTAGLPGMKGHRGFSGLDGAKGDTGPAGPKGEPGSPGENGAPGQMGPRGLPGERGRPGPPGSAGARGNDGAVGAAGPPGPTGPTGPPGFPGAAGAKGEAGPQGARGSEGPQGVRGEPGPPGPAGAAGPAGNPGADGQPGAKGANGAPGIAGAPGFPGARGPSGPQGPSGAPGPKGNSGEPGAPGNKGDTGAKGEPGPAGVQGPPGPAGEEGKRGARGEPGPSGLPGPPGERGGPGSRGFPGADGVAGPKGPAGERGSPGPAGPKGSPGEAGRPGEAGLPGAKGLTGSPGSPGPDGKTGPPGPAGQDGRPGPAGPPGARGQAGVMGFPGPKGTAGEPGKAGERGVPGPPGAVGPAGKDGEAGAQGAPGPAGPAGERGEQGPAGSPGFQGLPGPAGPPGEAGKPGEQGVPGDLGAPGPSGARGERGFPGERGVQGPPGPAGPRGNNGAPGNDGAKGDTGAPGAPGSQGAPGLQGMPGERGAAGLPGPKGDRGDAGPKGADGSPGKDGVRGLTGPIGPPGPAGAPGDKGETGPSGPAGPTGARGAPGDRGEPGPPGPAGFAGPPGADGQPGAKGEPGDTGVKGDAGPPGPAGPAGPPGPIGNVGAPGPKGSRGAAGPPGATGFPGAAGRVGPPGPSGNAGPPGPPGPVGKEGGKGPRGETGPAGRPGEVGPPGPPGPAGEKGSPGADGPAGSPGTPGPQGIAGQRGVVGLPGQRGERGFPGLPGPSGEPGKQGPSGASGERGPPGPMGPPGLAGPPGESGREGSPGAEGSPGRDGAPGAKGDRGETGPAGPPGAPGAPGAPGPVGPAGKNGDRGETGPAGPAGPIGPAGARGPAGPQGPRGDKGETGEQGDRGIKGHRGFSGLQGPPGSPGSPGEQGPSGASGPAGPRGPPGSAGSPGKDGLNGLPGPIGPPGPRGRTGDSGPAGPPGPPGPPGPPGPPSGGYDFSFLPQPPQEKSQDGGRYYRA
# Sequence (chain, as listed by the source, chain 2 of 2): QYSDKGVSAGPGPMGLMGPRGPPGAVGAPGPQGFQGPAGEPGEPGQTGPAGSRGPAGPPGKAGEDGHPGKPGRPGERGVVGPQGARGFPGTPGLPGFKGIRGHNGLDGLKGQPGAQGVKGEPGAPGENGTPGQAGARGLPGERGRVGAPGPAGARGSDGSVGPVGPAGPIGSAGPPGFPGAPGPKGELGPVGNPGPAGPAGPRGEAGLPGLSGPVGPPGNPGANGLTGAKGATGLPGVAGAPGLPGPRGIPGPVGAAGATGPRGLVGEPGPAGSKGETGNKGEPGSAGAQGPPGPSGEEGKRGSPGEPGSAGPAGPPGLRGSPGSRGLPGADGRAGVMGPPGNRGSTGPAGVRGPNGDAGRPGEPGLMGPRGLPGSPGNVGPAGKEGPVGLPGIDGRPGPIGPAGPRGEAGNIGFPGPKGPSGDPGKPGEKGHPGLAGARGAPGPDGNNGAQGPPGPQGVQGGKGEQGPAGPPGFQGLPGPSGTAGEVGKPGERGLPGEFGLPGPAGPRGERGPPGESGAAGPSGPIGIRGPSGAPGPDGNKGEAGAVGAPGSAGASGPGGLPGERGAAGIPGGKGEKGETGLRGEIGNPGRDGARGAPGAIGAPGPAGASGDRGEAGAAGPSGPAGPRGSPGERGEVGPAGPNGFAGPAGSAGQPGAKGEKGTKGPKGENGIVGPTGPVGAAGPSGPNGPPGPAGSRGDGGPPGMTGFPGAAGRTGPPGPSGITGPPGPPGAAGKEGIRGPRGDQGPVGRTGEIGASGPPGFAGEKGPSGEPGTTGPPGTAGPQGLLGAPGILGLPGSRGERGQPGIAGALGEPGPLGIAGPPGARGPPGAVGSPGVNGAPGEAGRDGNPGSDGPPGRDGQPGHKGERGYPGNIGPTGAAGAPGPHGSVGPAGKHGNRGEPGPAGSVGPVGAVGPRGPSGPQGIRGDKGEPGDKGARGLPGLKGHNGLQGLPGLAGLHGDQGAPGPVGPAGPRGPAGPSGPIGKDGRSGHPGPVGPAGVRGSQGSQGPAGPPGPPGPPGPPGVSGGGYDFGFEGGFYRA
protein,measurement,value
B1,"digestion of native rat tail collagen type I (PAGE gel, Coomassie stain)",digested native collagen type I into smaller fragments
